B1: H61A Mycobacterium tuberculosis CsoR (natural protein)
chain: MSKELTAKKRAALNRLKTVRGHLDGIVRMLESDAYCVDVMKQISAVQSSLERANRVMLHNALETCFSTAVLDGHGQAAIEELIDAVKFTPALTGPHARLGGAAVGESATEEPMPDASNM

Experiments:
[1] = system: CsoR H61A (Mycobacterium tuberculosis); experiment: fluorescence anisotropy; conditions: pH 7.0, 0.2 M NaCl, 2 mM DTT, 25 °C (buffer not stated in the material)
[2] = biological target: the molecule itself

Molecule	Ka (M-1 (A2 (so in the source); ≤)) [1]	stoichiometry N [2]
cso operator DNA	< 1e+10	
B1		4

Reference: article PMC2797707 (Journal of the American Chemical Society, 2009)
